Target: recombinant Cse4 (S. cerevisiae) (UniProt P36012)
Assay: SEC

stoichiometry N: 2
Substance: recombinant Cse4 (from UniProt P36012 1-229) (natural protein; other documents disagree on this pair)

Source: publication PMC2757638
